# In the DeepSol protein solubility set:
# Assay: soluble on expression in E. coli; label from the status in PepcDB or PDB records
row,Sequence,soluble on expression in E. coli
1,MAHHHHHHMWAKYSSSAVEEASKQAKSFATYPSSTPDMSGDEKEAFHETNSRDAFTVALLKHVARNLGVQYMGDRVETSDSIVMDKLGRIKAEIRSRERLLGVENMGLIPLFIEAGDSSLTCEDSLIYYKKALDIVEANKDIKRDSNMMNDVGVSSFADLGSRFFRYGQYQVAERLFTMAAAISRDKVTGVAEEISFSTAQCGSQKSLQRLKGHLWDWKKAAEAANEDLSTLLSDATRNTHRFREMRDACSQTDLAEHRVAMPASQFIGTKREMKGLKGTRNGEELKRLVEYVFDPMSVEDGFTRQLLPKGSRNTTRLLSEHFTGSNPCLALRESIDCITSRIGAKADSINSSGGALRRELQTR,not soluble
2,MNSNEDIHEERIEVPRTPHQTQPEKDSDRIALRDEISVPEGDEKAYSDEKVEMATTNASSNFGSNESAKDGESIGAFSNPHEALMQSKLREESQSKTILPSDDLSQQLETEESKVEEALKRITSPPLPPRADCIEESASALKSSLPPVLAGNKNDQAPLDRPQLPPRQVVNAETLHLKAPHGNATPSKSPTSAVGNSSSSTPPTLPPRRIEDPLDLAAQKHFLASTFKRNMLFYKSEDNSIKCDLDKNILNLKEDSKKINNNEIPEEVSSFWLKVIGDYQNILINDIETLHFQLSRGIPAAYRLVVWQLVSYAKSKSFDPIYETYLTEMAPFDVQEFENQLKMMDEVPSEYVKRISNVLKAYLLFDPECEFSTDIAYIINMILDVCEEEANAFGLLVRLMKVYGLRLLFLPSASEIDILCYKFDRLVEEFYPEIHNHMVEKGVRSSMFLPGFFTTLFQKKLPTEIQPRIGDMVFLEGIDSIMRILATLLSNSRDHLLKMGFDDMLELLKSGLLDAYIKQNDGTRGDTLLSNECMDKLLQDSMMKVAITPKTMKKYSSEYEEIHRLDNEKEVQYKSITEKNLHLQKHVRKLENDYTSLNREHVTIANELVKNRLNIESVLNENNGYKLQILDLKKKLDSEKKKQVLGVYVPNDLKKDLEETMKKNTQVMDENLKLQDRISELERLIEEIKTANKNGTLFEYSNSKNNPLGAGWSGFKKVFK,soluble
3,MNELRDPGDAVIAIVGGGASGVLVALQLLRQAVAPVQIVVIEPHAVLGEGVAYSTARPEHLLNVPAARMSALVEAPQDFVDYLRAHACCPELEDARLPQAFVGRRHYAPYLRDRLQTARVQSPATLIVHSARVQTLHADADGALLQLDDGQTLHATSVVLAVGNALRPLPLRGATGLSATQRLEAWDTEAVAALPQDAAVCIVGSGLSMADTVVTLAAQAHRGAVHVVSRHGLLPLPQAHCVAADFDPQPLLALSLRARMRSLRQHAQVAMAQGLPWQGVMERVRPLNQVLWQTLSVADQRRFLRHVVRYWDVHRHRIAAPVHAQLQAMRARGQLQLHRARLDVAFQAGACVRLSAGASAGHALQLDVQTLVNATGVEMRVQAMRNPLLQQLLGQGIAVAGSHGIGVDTAADGCLIDAEGHANPRLRVIGSLRIGSLWESLAVPELREQAAAIARDVLALLGR,not soluble
4,MSLTEFWNSFSNLFTGGRSTNRKIILVLLIMVLSSGVCSADNYVGGIPLTSAHSGTVSGGVYCDSYYGMGDQEAKASNTIEKTFTVPDNANVEWAMLLTNVYCGHMQNNYQGKAKVDFNGKNLGTETLNVPYTYSYNGGNGHVQVNDHVNRVTSDYMMYYDVTGLVKAGKNTAVVKTDPLDSSFDGRIRLVTLVVAYNDGSKKTIWYQVNRGHDADSYYSDDEMNENYIGSTAFQAALPEGSSLTDSKLTLVYQASSDGAYAFNGNALSSGTPQGTFSGSNTWDVKDSLKSSGTNTLTYDRTASFYKSVLGILTAEYTTSSSGDSTDDTPADNEGHHHHHH,soluble
5,MVIRSVSRFLQGNNWPDVSKIYKTIVEKWRNENPDQNAHFSLEVTGPTGTSGVVTVKPSEEIGKSEKVSEEKSSEKPSIEVATTSLKRYPPAHMRVRDKLVGILSASGLRIGLPSSVSLVFSRSDLGSATSSTERICASSQEVASTMSLPDPSQSGITDSFPRVFKEFDFLEAEHDSVSETADSCFGWLSTMRPTREKDDERASIRSSLRNLSSGGQGGEEEEEEPEEDEESESHEEEENSESDDLPRKVEDDDLEEEDEDEEERTPCPSECCDDDREDVEMMLRQDIEAYASRGGSVAASSMADDDLRSRLTNNIVSISSQMTEHRHLEEENTSVDGSSVCAYSNASMLASEYYPNRTRSLRIQCSHHLDSRIEREFSMSVNEINESNDCNLLAYGTLLSTQLYKSSCGKVCALLRDASHILTNRAMSRSFASAQETLCNVVDIPFLFVTEQFLRNSPICQRLKFTLNELKEHWETFDERRDQCQKNTTNFGRKYKLFEILDFRKKNLKGINSLRSAYKLSALGGSTSSFSLTSELDLGKLLNKLVFQVKLMIDALKDMSDAVKNSTSSQTYSLSPAILEHHRELLMCASDDAASSVNSSLSRLNIDDSISRSQHSCDSLVLLLANKRYTQALQAVRQLRRTYGEEYGCCETVDVDVLLLLFCRSHSLKAWALVGASSEELTRQSELLREANAELASCLRRNAQSLQNMERMTPSMGSASMTESFAQLPSSSDHYD,not soluble
6,MAESSVTFTISTDGGGKINVIYDGSHKTNATDSSVNSESVTPCESLDTTKESEMLKAGLRRRAPSISTESSVTFSSISDFEDLNLRCSTPLVCDDDTNSNSDASFASCVSEVSEMSIKTTSSQETVTSASGLKESKPMEKMEEKREVRMKSYEQVNKERYGGWTEVVNWRAAKKPQSVAPSQSSTKKTLSNNGTTTDHGITSASRRTPNSTHVASKPQLNTRATSVQGSAPSSGSKSRIPSLANRQVYNNSPQLFHPFPPSRCNSSNGSYASTVTASPSVASYSPNPSQPPPPVAVAKLNMKMTITTDSNGKMSVHFSNSNSSESWSINGLLGNSDKINVSKMF,not soluble
7,MEMRQPAVAGQFYPLRCENLENELKRCFEGLEIREQEVLGAVCPHAGYMYSGKVAAHVYATLPEADTYVIFGPNHTGYGSPVSVSRETWKTPLGNIDVDLELADGFLGSIVDADELGHKYEHSIEVQLPFLQYRFERDFKILPICMGMQDEETAVEVGNLLADLISESGKRAVIIASSDFTHYETAERAKEIDSEVIDSILNFDISGMYDRLYRRNASVCGYGPITAMLTASKKLGGSRATLLKYANSGDVSGDKDAVVGYAAIIVELEHHHHHH,soluble
8,MSEPIPPFRYAPIVCSEQSTIVAEFVPEASGVREAGYQSEAELEAAFITQLQGQAYEYLSITSEAALLANLRRQLEKLNKVTLSDAEWEGFFSTCIAGAHDGIVQKTARIQEDHVQVLKRDDGTIKNMCLLDKGNIHNNILQVMNQYAVEGARGNRYDVTVLVNGLPMVHVELKRRGVDIREAFNQINRYQRDSFWAGSGLFDYVQLFVISNGTLTKYYSNTVRAGHVEEQSNKRSKSKTSNSFSFAIWWADAKNQPITELTSFTKTFFAKHSLLNVLTKYCVFNANRKLLVMRPYQIVAAERILQRIVTATHQQQLGTVAAGGYIWHTTGSGKTLTSFKVAQLACGLGVIDKVLFVVDRKDLDYQTMREYESFEKGAANSNTSTAVLQRQLEDSDVRIIITTIQKLSRFVAKHKQHPVYGAHVAVIFDECHRSQFGDMHTEITRAFQRYHLFGFTGTPIFAENAGSTQNPMRRTTQQTFGDTLHTYTIVDAINDKTVLPFRIDYINTIKSQPNINDKQVAAIDTERALLAPERIRQIVSYIREHFDQKTKRASIYRHEGQRLQGFNALLATASIDAAKRYYAELMAQQKDLPEAQRLKVGLIYSVAANEGDGDELLAEEEFETERLDQDARNFLEAAIQDYNALFGTSFDTSADKFQNYYKDVSERLKKRKLDILIVVNMFLTGFDATTLNTLWVDKRLKAHGLIQAYSRTNRILNSVKSYGNIVSFRNLEQETNEALALFGNKDAKGIVLLRPYAEYYKEYEERVGELVAAFPLGKVIVGEAAQKAFITLFGSILRLKNILTAFDDFAGQEVLTEREFQDYQSLYLNLYAEFRSASAAEKESINDDVVFEIELIKQVEINVDFILLLVEQYVKKKGTGEDKDIRATIERAIHSSPSLRNKKELIEQFVDAVSMKATVDAQWQAFVAVKQSQELEGIIAEENLNAEATREFIANAFRDGSIPATGTAITKILPPVSRFSKNNGHAAKKQTVLDKLATFFERYFGLV,soluble
9,MGSDKIHHHHHHMNALPLVSVVVPNYNYKRYLNLRIQSILQQTYQNIELILLDDASTDGSEEVLSDYQDHAKVSHILLNEHNTGNPFKQWFKGMQLAKGKYIWIAEADDLCELTFLEKVVPLMEKYQQAAVCFAGSKYIDKDGNVLSYDMNKWKSAIPPYAVFNGKTYAEHNLYWRSYIANASSAIFRKSMVNAQNMEQCLQMRYSGDWLFWFYMAMQGDIIERYEVLNYFRQHNQKVTVKAENNGGGKSEDIEIVRIMEQHLTHLSRYKRCIRRGMLYNRIAKLSTTDRVKLQLWELLRQKLNGTRKDGRLERLNRIARLFCPFVLTMKRDRLTPSREIG,not soluble
10,MKKTPLYEAHLRLGARMVDFAGYLLPLQYTSIVEEHLAVRRAVGVFDVSHMGEFLVRGKEALAFLQWATANDAGKLKVGRAQYSMLPNERGGVVDDIYLYRLGEEEYLMVVNAANIAKDLAHLQALAKGFRVELEDASERTALLALQGPKAASLLQGLTDLDLSQKRKNDVFPARVAGRPARLARTGYTGEDGFELFLAPEDAEPVFLALVEAGAKPAGLGARDSLRLEAGFPLYGHELTEETNPLCTPWAWVVKKEKAFLGKEAMLAQACRERLVGLVLEGGIPREGYRVLSGGRPVGRVTSGGYSPLLQRGIALAYVEEGAEGPFQVEVRGRAVPAALSPLPFVPLK,soluble
11,EHKIILYENPNFTGKKMEIVDDDVPSFHAHGYQEKVSSVRVQSGTWVGYQYPGYRGLQYLLEKGDYKDNSDFGAPHPQVQSVRRIRDMQGNPKIIIFEQENFQGHSHELSGPCPNLKETGMEKAGSVLVQAGPWVGYEQANCKGEQFVFEKGEYPRWDSWTSSRRTDSLSSLRPIK,soluble
12,MSPNCETPTSSLSTSLRFVPSLACIAEEEPKVIGIRKITVPGSSKPFQVQIPLYDLNIYAPEPPKQPLPDSYQRLLAEMDQYIGGHQNSEMYKEMAKNLRHKVAVEQAENNRLSKSNFTNRDWYWYAEQTRAFVDEPVINSTSKTQESNISECLEETSSSAKSTVMKDEDLFDLSADF,not soluble
13,MGSDKIHHHHHHYTEQPIDLVPTQPLPNASFDNFKLTCSNTKFADDLNQMTGFTKPASRELSVTFFPDLNGDVVAIDYRHYSASFKKGAKLLHKPIVWHINQATTKTTFKPNTWCLRCLWSTKPVDT,soluble
14,MEVKIEETDWDEGVPGISFLKDAFSREEISPPKDDKNRKKEEVRMKLESGEYSVVYRCPTFDEILNENGQKIDLVQCKNCFGFLSARTGGHMKNHKNQRCKPLNGPPEKKPKLDPQVVGNLQNHILDFVTESGVSLNIAESEKFRIFIISMIITGNPNVNVDEHQFLSGEWIRKTMKEKSCQYLDNIGAELKDPVSKGDACLILDYGRQLDDTFSIFVSYTNRSSGYFSLRVIPLAFTPLFEKKITEKTLDYILHATDRVGLPKEHVLKLKVVAEGATNMLKLGEYFDNCNLFTVCLSFSSKMCRKSFRSTETVEKFDNFIRKITCESDRKRNRNLWNDFLQTPALQSLINIYVLSLILLCFQLTEQLSRTPAQSRANEWLASYHCARDILHVFPQIADLKDDRIEPLVDELRQCKGVLEDCFEIFSLFENPLKLLEQPEQQIQNVAGCLAAVAKMAKLSIAHYTKITVTDVHLICAFLSPDSKNLKNFPAPKKNKAYRIVNTLMKDVVVPPPSLSQPILSPLLMAIKNDPSPIPTVSQEFNDYVQLVVSSKDATLAPLEFWAKYQERFPRMSEIAAKNFCVMSSPGVCGPSFIVLRSLFRVDRHSKFPDTTELMMISYLMANELK,not soluble
